Measurements: patent US20220306734A1 (H LUNDBECK A S, published 2022)
Changes are numbered by the printed parent chain. One block for each binder: values may come before it.

Experiments:
[1] = target: human mGluR5 extracellular domain (human-mGluR5-ECD) (human) (UniProt P41594); experiment: HTRF, soluble ECD
[2] = target: full-length (FL) human mGluR5 on BA/F3-mGluR5 clone 10C9 cells (human) (UniProt P41594); experiment: flow cytometry, BA/F3-mGluR5 10C9 cells; low end tied to Ab22 by Table 2
[3] = target: human mGluR5 extracellular domain (human-mGluR5-ECD) (human) (UniProt P41594); experiment: HTRF, soluble ECD; remark: listed apart in the source
[4] = target: full-length (FL) human mGluR5 on BA/F3-mGluR5 clone 10C9 cells (human) (UniProt P41594); experiment: flow cytometry, BA/F3-mGluR5 10C9 cells, 10 ug/ml antibody
[5] = target: full-length (FL) human mGluR5 on BA/F3-mGluR5 clone 10C9 cells (human) (UniProt P41594); experiment: cell-based or functional assay
[6] = target: T1, human mGluR1 extracellular domain (human-mGluR1-ECD) (human, UniProt Q13255 19-592, limits assumed); experiment: HTRF, soluble ECD
T1 construct: ECD construct made 'in a similar fashion' to the human mGluR5 one; also called hu-mGluR1
Description: (§1) Binding of antibodies to mGluR5/mGluRJ measured via Homogeneous Time-Resolved Fluorescence (HTRF). Binding assays were performed using HTRF reagents from CisBio. Ten microliters of an antibody dilution series (highest final concentration of 30 nM) was incubated with 10 μl of mGluR-ECD (10 nM final concentration) in HTRF buffer (50 mM Phosphate buffer pH7, 0.8M KF (potassium fluoride), 0.2% BSA). Twenty microliters of Europium-labeled anti-hu-Fc donor (2 nM final concentration, CisBio Catalog No. 61HFCKLB) and 20 μl of XL665-labeled anti-Flag acceptor (60 nM final concentration, CisBio Catalog No. 61FG2XLB) were added to each well and incubated for 1 hour at room temperature. Alternatively, the antibody dilution series was incubated with 10 μl of biotinylated mGluR-ECD (10 nM final concentration), and 20 μl of Europium-labeled anti-hu-Fc donor (2 nM final concentration) and 20 μl of d2-labeled streptavidin acceptor (60 nM final concentration, CisBio Catalog No. 610SADLB) were added to each well. Fluorescence was measured at 620 and 665 nm with a delay of 300 μsec. Results were expressed as the ratio of signal at 665 nm over 620 nm. EC₅₀ values were calculated for binding of Ab1-Ab23 to human-mGluR5-ECD, of Ab1-Ab21 to rat-mGluR5-ECD, and of Ab1, Ab2 and Ab4-Ab12 to monkey-mGluR5-ECD and to human-mGluR1-ECD (TABLE 1).

[7] = target: T2, cynomolgus monkey mGluR5 extracellular domain (monkey-mGluR5-ECD) (cynomolgus monkey, UniProt P41594 21-580 (human entry), limits assumed); experiment: HTRF, soluble ECD
T2 construct: ECD construct made 'in a similar fashion' to the human one; also called cyno-mGluR5
Description: as §1

[8] = target: T3, rat mGluR5 extracellular domain (rat-mGluR5-ECD) (rat, UniProt P31424 21-504); experiment: HTRF, soluble ECD
T3 construct: ECD construct made 'in a similar fashion' to the human one
Description: as §1

[9] = target: human mGluR5 extracellular domain (human-mGluR5-ECD) (human) (UniProt P41594); experiment: AlphaLISA, biotinylated ECD
[10] = target: human mGluR5 extracellular domain (human-mGluR5-ECD) (human) (UniProt P41594); experiment: AlphaLISA, biotinylated ECD; remark: listed apart in the source

Chain of human mGluR5 extracellular domain (human-mGluR5-ECD) (human) (P41594 other isoform, or with tags, fused parts or gaps): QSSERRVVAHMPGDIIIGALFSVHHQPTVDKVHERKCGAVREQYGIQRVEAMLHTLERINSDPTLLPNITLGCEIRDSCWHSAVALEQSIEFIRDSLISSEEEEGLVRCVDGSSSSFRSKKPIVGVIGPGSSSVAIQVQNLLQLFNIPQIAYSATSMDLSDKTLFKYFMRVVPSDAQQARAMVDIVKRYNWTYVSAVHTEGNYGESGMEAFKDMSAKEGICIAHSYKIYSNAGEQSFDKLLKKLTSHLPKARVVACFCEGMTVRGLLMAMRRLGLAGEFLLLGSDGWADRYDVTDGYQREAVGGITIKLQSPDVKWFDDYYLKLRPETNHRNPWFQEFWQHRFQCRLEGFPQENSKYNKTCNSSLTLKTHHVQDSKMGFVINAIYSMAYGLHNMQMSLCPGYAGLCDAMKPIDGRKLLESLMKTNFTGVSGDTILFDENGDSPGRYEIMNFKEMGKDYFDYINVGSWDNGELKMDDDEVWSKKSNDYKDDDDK
T1 sequence (Q13255 other isoform, or with tags, fused parts or gaps limits assumed): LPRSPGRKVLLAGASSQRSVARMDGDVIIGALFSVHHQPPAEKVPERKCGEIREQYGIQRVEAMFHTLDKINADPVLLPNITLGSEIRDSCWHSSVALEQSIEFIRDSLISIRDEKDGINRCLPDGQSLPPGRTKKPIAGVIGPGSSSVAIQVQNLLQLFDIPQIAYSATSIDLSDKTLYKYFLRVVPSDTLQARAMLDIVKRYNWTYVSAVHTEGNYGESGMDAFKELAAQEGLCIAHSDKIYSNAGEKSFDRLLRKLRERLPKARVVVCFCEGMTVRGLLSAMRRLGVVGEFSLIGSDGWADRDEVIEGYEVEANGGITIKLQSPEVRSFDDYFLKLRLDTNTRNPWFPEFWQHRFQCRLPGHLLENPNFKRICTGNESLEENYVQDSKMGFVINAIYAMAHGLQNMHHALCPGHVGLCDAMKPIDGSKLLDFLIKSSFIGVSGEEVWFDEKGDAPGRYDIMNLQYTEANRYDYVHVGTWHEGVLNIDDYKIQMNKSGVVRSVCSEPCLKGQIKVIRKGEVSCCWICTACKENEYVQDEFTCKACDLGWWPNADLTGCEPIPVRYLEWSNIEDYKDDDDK
T2 sequence (P41594 other isoform, or with tags, fused parts or gaps limits assumed): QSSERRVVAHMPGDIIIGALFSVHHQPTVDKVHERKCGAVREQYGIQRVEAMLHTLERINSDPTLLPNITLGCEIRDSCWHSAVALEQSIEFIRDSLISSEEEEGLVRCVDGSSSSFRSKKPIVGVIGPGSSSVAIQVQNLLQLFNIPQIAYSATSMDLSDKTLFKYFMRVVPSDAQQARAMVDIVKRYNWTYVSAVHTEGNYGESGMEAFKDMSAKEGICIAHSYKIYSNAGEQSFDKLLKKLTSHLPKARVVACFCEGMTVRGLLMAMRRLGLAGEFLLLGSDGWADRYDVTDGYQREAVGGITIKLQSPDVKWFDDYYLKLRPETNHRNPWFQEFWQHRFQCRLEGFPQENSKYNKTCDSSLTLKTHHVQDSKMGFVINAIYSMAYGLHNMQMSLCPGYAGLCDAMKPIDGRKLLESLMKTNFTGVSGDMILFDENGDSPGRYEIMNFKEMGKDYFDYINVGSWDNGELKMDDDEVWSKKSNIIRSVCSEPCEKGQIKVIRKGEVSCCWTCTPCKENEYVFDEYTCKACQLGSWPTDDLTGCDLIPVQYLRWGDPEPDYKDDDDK
T3 sequence (P31424 other isoform, or with tags, fused parts or gaps limits assumed, form in doubt): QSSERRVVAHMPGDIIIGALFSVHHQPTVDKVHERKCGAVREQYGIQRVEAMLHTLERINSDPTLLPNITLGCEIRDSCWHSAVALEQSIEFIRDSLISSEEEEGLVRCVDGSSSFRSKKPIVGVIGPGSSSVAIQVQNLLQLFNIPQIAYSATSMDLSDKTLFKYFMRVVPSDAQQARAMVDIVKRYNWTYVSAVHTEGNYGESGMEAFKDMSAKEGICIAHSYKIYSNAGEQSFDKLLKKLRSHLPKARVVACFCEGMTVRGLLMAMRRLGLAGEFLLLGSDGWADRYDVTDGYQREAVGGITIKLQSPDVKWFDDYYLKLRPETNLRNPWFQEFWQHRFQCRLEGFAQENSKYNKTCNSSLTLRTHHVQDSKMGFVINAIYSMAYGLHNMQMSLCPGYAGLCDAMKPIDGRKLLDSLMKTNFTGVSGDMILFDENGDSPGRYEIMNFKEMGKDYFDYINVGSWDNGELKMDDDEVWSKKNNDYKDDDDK

B1: mGluR5 Ab22 (antibody, V domains shown)
VH: QSLEESGGDLVKPGASLTLTCTASGFSFSTSYYMCWVRQAPGKGLEWIGCIHTSTFSTWYASWAKGRFTISKTSSTTVTLQMTSLTAADTATYFCARRDAYNYAGYAYNLWGQGTLVTVSS
VL: DVVMTQTPASVSAAVGGTVTINCQASEDIYSNLAWYQQKPGQPPKLLIYGASTLASGVPSRFKGSGSGTEFTLTISDLECADAATYYCQCTFGCFSGSSNNIFGGGTEVVVKR
EC50 [1]: < 2 nM
fold signal over background [2]: 10 to 42 fold
EC50 [3]: 0.439 nM
mGluR5 (FL) cell binding-fold over background [4]: 10.9 fold
pERK Assay Inhibition IC50-nM [5]: 8.33 nM

B2: mGluR5 Ab10 (antibody, V domains shown)
VH: QSLEESGGRLVTPGTPLTLTCTVSGIDLSSYAVGWVRQAPGKGLEYIGIIYASGNTWYASWVKGRFTISKTSTTVDLKMTSLTTEDTATYFCARGHGATYDYFNLWGPGTLVTVSS
VL: AYDMTQTPASVEVAVGGTVTIKCQASQSISSWLAWYQQKPGQPPKLLIYDASDLASGVPSRFKGSGSGTEYTLTISGVQCDDAATYYCQQGLATANVDNVFGGGTEVVVKR
notes: Rabbit variable regions on human heavy and light chain constant regions (chimeric)
EC50 [1]: < 2 nM
binding result [6]: no binding
EC50 [7]: 0.339 nM
EC50 [8]: 0.848 nM
EC50 [3]: 0.409 nM
mGluR5 (FL) cell binding-fold over background [4]: 27.9 fold
pERK Assay Inhibition IC50-nM [5]: 1.07 nM

B3: mGluR5 Ab6 (antibody, V domains shown)
VH: QSLEESGGRLVTPGGTLTLTCTVSGIDLSSYAMSWVRQAPGKGLEWIGIIYASGNTWYANWVKGRFTISKTSTTVDLKMTSPTTEDTATYFCARDSSATFNYLDLWGQGTLVTVSS
VL: AFHMTQTPASMEVAVGGTVTMKCQASESIDTYLNWYQQKPGQPPKLLIYQASKLASGVPSRFKGSGSGTEFTLTISGVECADAATYYCQQGWSTNDVDNVFGGGTEVVVKR
notes: as for B2
EC50 [1]: < 2 nM
binding result [6]: no binding
EC50 [7]: 0.424 nM
EC50 [8]: 0.771 nM
EC50 [3]: 0.415 nM
mGluR5 (FL) cell binding-fold over background [4]: 24.4 fold
pERK Assay Inhibition IC50-nM [5]: 4.29 nM

B10: mGluR5 Ab7 (antibody, V domains shown)
VH: QSVEESGGRLVTPGTPLTLTCTVSGFSLSRYAMGWVRHVPGKGLEWIGIIYASGSTYYASWAKGRFTISKTSTTVDLKITSPTTEDTATYFCARSRTATYDAVDPWGPGTLVTVSS
VL: AYDMTQTPASVSEPVGGTVTIKCQASQSISSYLSWYQQKPGQPPKLLIYEASTLASGVSSRFKGSGSGTEYTLTISDLECDDAAAYYCQQDLSGSNLDNSFGGGTEVVVKR
notes: as for B2
EC50 [1]: < 2 nM
binding result [6]: no binding
EC50 [7]: 0.37 nM
EC50 [8]: 0.63 nM
EC50 [3]: 1.02 nM
mGluR5 (FL) cell binding-fold over background [4]: 28.9 fold
pERK Assay Inhibition IC50-nM [5]: 1.34 nM

B11: mGluR5 Ab11 (antibody, V domains shown)
VH: QSLEESGGGLVKPGGTLTLTCTASGFSFSSSYWICWVRQAPGKGLEWIGCIYGSTDAYNANWAKGRFAISQTSSTTVTLQMTSLPAADTATYFCARHDGDIGWTLDLWGPGTLVTVSS
VL: AYDMTQTPASVEVAVGGTVTIKCQASLTIGTRLAWYQQKPGQPPKLLIYKASTLASGVSSRFKGSGSGTQFALTISDLECADAATYYCQQAAYVTDIDNAFGGGTEVVVKR
notes: as for B2
EC50 [1]: < 2 nM
binding result [6]: no binding
EC50 [7]: 0.255 nM
EC50 [8]: 0.423 nM
EC50 [3]: 0.545 nM
mGluR5 (FL) cell binding-fold over background [4]: 37 fold
pERK Assay Inhibition IC50-nM [5]: 0.14 nM

B12: mGluR5 Ab9 (antibody, V domains shown)
VH: QSVEESGGRLVTPGTPLTLTCTVSGFSLNNYAMNWIRQAPGKGLEWIGIIYGSGSTYYASWAKGRFTASKTSTTVDLKMTSLTTEDTATYFCARDELAAGINYFTLWGQGTLVTVSS
VL: ALVMTQTPASVEVAVGGTVTIKCQASQNIIDWCSWYQQKLGQPPKLLIYEASKLASGVPSRFKGSGSGTQFTLTISGVECADAATYYCQQGYSPSGVDNVFGGGTEVVVKR
notes: as for B2
EC50 [1]: < 2 nM
binding result [6]: no binding
EC50 [7]: 0.398 nM
EC50 [8]: 0.519 nM
EC50 [3]: 0.998 nM
mGluR5 (FL) cell binding-fold over background [4]: 28.4 fold
pERK Assay Inhibition IC50-nM [5]: 2.97 nM

B13: mGluR5 Ab12 (antibody, V domains shown)
VH: QSVEESGGRLVTPGTPLTLTCTVSGIDLSSNAMGWVRQAPGKGLEWIGIIYASGNAWYANWVKGRFTISKTSTTVDLKITSPTTEDTATYFCARDATATWDYFNLWGQGTLVTVSS
VL: AYDMTQTPSSVSAAVGGTVTIKCQASQSISNWLSWYQQKPGQPPKLLIYRASTLASGVSSRFSGSGSGTEFTLTISDLECADAATYYCQQGYSVANVDNAFGGGTEVVVKR
notes: as for B2
EC50 [1]: < 2 nM
binding result [6]: no binding
EC50 [7]: 0.359 nM
EC50 [8]: 0.991 nM
EC50 [3]: 0.775 nM
mGluR5 (FL) cell binding-fold over background [4]: 31.9 fold
pERK Assay Inhibition IC50-nM [5]: 3.73 nM

B14: mGluR5 Ab5 (antibody, V domains shown)
VH: QEQLVESGGGLVQPEGSLTLTCTASGIDFSSGYFMCWVRQAPGKGLEWIACISPYSDNTWYANWAKGRFTISKTSSTTVTLQMTSLTAADTAAYRCARTMAIGAYNPFKLWGQGTLVTVSS
VL: ALVMTQTPSSVSAAVGGTVTINCQASQNIYSNLAWYQQKPGQRPKLLIYDASDLASGVSSRVKGSGSGTEFTLTISDLECADAATYYCQGYYSGNAFGGGTEVVVKR
notes: as for B2
EC50 [1]: < 2 nM
binding result [6]: no binding
EC50 [7]: 0.31 nM
EC50 [8]: 0.311 nM
EC50 [3]: 0.54 nM
mGluR5 (FL) cell binding-fold over background [4]: 36.3 fold
pERK Assay Inhibition IC50-nM [5]: 1.51 nM

The next lines start with the values.

EC50 [9]: < 2 nM
mGluR5 (FL) cell binding-fold over background [4]: 37.2 fold
EC50 [10]: 0.0947 nM
pERK Assay Inhibition IC50-nM [5]: 0.1 nM
B4: mGluR5 Ab24 (antibody, V domains shown)
VH: QQQLEESGGGLVKPGGTLTLTCKASGIDFSNVYYMCWVRQAPGKGPEWIACIYVGDGSTYDASWARGRFTISKTSSTTVTLQMISLTAADTATYFCAGGTGVGSYGYSLWGPGTLVTVSS
VL: DIVMTQTPASVEAAVGGTVTIKCQASESIYSNLAWYHQKPGQPPKLLIYRASNLESGVPSRFKGSGSGTDFTLTISDLECADAATYYCQGYYASVVTNGFGGGTEVVVKR

EC50 [9]: < 2 nM
mGluR5 (FL) cell binding-fold over background [4]: 39.4 fold
EC50 [10]: 0.101 nM
pERK Assay Inhibition IC50-nM [5]: 0.1 nM
B5: mGluR5 Ab26 (antibody, V domains shown)
VH: QSVEESGGGLVKPEGSLTLTCKASGFDLSSYYYMCWVRQAPGKGPEWIACIYAGDGTTYYASWAKGRFTISKTSSTTVTLQMTSLTAADTATYFCARGTGVGSYGYNLWGPGTLVTVSS
VL: B4 VL with S28N, H37Q, D70E, A81D, A93P, V95A, G99A

EC50 [9]: < 2 nM
mGluR5 (FL) cell binding-fold over background [4]: 38.9 fold
EC50 [10]: 0.0918 nM
pERK Assay Inhibition IC50-nM [5]: 0.11 nM
B6: mGluR5 Ab28 (antibody, V domains shown)
VH: QQQLEESGGGLVKPGGTLTLTCKGSGIDFNDYYYMCWVRQAPGKGLEWIACIYNGDGETYYANWAKGRFTISKTSSTTVTLQMTSLTAADTATYFCARGSGVGSYGYNFWGPGTLVTVSS
VL: B4 VL with H37Q, E55A, D70E, V95T, G99A

EC50 [9]: < 2 nM
mGluR5 (FL) cell binding-fold over background [4]: 37.8 fold
EC50 [10]: 0.0772 nM
pERK Assay Inhibition IC50-nM [5]: 0.06 nM
B7: mGluR5 Ab27 (antibody, V domains shown)
VH: B5 VH with E14G, S16T, F26I, L28F, Y32H, P45L, A53N, T57D, T99S
VL: B4 VL with H37Q, D70E, V95T, V96T, G99A

EC50 [9]: < 2 nM
mGluR5 (FL) cell binding-fold over background [4]: 39.6 fold
EC50 [10]: 0.0891 nM
pERK Assay Inhibition IC50-nM [5]: 0.09 nM
B8: mGluR5 Ab29 (antibody, V domains shown)
VH: B6 VH with G24A, N30S, D31S, Y33H, E58D, N63S, F109L
VL: B4 VL with S28N, H37Q, D70E, A81D, A93P, V95A, G99A

EC50 [9]: < 2 nM
mGluR5 (FL) cell binding-fold over background [4]: 37.9 fold
EC50 [10]: 0.0915 nM
pERK Assay Inhibition IC50-nM [5]: 0.11 nM
B9: mGluR5 Ab25 (antibody, V domains shown)
VH: B6 VH with Q2R, T17A, G24A, N30S, D31S, M35R, N54T, E58T, N63S, I71T
VL: B4 VL with H37Q, N53T, D70E, V95I, V96I, G99A
